The values below come from patent publication US20140206847A1 (PANASONIC, published 2014).

The target of the experiment is T1, Troponin I derived from human myocardium (human, UniProt P19429 2-210).
T1 construct: Bought protein, fixed on a CM5 chip at approximately 500 RU; also called Troponin I (purchased from Funakoshi)
The experiment is described as follows: SPR, Biacore T100; troponin I fixed on CM5 chip, measured similarly to the mutant protein; column head 'Association Rate Ka(M^-1)'. The procedure:
Using an intermolecular interaction analyzer Biacore T100 (purchased from GE health care company), the association rate of the mutant protein was measured in accordance with the manual attached to the intermolecular interaction analyzer Biacore T100.
More particularly, Troponin I (purchased from Funakoshi) derived from human myocardium having approximately 500 RU (Resonance Unit) was fixed on a CM5 chip (purchased from GE health care company). This CM5 chip was set in the Biacore T100. Then, aqueous solutions (concentration: 100 nM, 50 nM, 25 nM, 12.5 nM, and 6.25 nM, volume: 150 microliters) containing the purified mutant protein was flowed through the Biacore T100 to measure the association rate of the mutant protein.

T1 sequence (P19429 2-210 limits assumed): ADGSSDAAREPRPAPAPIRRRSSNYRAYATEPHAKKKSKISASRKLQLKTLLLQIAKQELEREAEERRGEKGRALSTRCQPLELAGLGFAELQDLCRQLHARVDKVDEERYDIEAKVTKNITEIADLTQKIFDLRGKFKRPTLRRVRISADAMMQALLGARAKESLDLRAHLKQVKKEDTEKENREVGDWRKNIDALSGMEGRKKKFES

B1: First mutant scFv antibody fragment (scFv)
scFv: DVVLTQSPLTLSVTIGQPASISCKSSQSLLDSDGKTYLNWLLQRPGQSPKRLIYLVSKLDSGVPDRFTGSGSGTDFTLKISRVEAEDLGVYYCWQGTHFPLTFGAGTKLEIKRGGGGSGGGGSGGGGSQLQLQQSGAELVRSGASVKLSCTASGFNIKDYYMNWVKQRPEQGLEWIGWIDPANGDTAYAPRFQVKADMTADKDSDTAYLQLSSLTSEDTAVYYCNADLPMDQWGQGTSVTVSSAAALESFNRNEC
notes: also called first mutant scFv antibody fragment 51; mutant first scFv antibody fragment
Regarding B1, the Ka amounted to 5.11e+09 M⁻¹.
